This note sets out measurements from patent US11542515B2, “Methods and compositions for increasing efficiency of targeted gene modification using oligonucleotide-mediated gene repair” (CIBUS US LLC, priority 2016, dated 2023).

d = 2'-deoxy (DNA); m = 2'-O-methyl

The series relates to EPSPS 2-25 gene. Put plainly: EPSPS precise edits by Cas9 RNP plus GRON in leaf protoplasts (deep sequencing). It counts as cell-based, Brassica napus. As to conditions: with Cas9 protein complexed with BnEPSPS gRNA-1, three weeks, three independent experiments. The protocol: Brassica napus protoplasts derived from leaves of in vitro propagated nodal cuttings were seeded in a 50 ml centrifuge tube at 2,000,000 cells per tube and at a cell density of 5×10^6 cells/ml. CRISPR-Cas9 targeting the EPSPS 2-25 gene along with GRON was delivered as a ribonucleoprotein complex using the PEG method or by alternative delivery methods such as by electroporation, cell-penetrating peptides and/or lipid based delivery techniques. Protoplasts were incubated in the dark at 25° C. for three weeks, and then analyzed deep sequencing in order to determine the percentage of precise EPSPS edits and frequency of indels within a given treatment.
The CRISPR-Cas9 consists of two components: the Streptococcus pyogenes Cas9 (SpCas9) and sgRNA which form the RNP CRISPR-Cas9 complex when mixed. The sgRNA is a fusion of CRISPR RNA (crRNA) and trans-activating crRNA (tracrRNA). The crRNA region contains the spacer sequence used to guide the Cas9 nuclease to the EPSPS target gene. In these experiments RNP CRISPR-Cas9 is used to target the EPSPS 2-25 gene. The GRON contains the coding sequence of the EPSPS gene near the site of conversion as well as nucleotide alterations to produce the desired changes to the EPSPS gene.

B1: 2′OMe; BnEPSPS-2-25/NC 101-mer: 101-mer 2OMe GRON targeting Brassica napus EPSPS 2-25, SEQ ID NO: 336 (nucleic acid)
chain: UTACCTTGCGTTGCCACCTGCAGCAGTAACTGCAGCGGTAAGTGTACGCATCGCTATTCCAGCATTCCCAAGGTACAACTCGATATCACTCTTGGAATCTA
modifications: sugars from the 5' end m1 d100, backbone and methylation of C not given here
For the molecule B1, the “gene editing in the targeted epsps gene(s)” value is recorded as 0.07-0.125%.
